Reference: the nanobody polyreactivity screen of Harvey et al. (2022)

Assay: yeast display, Sf9 membrane polyspecificity reagent, FACS + sequencing; frameworks hold sequencing errors
Summary of the method: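 A nanobody's polyreactivity label depends on the gate it was sorted from. Yeast display cells were stained with 10% biotinylated, detergent-solubilized Sf9 membrane reagent for 1 hour at 4 °C, enriched on streptavidin microbeads and sorted by FACS. The low and high (top ~1%) gates were set on anti-HA fluorescence for expression and streptavidin fluorescence for reagent binding.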

| Sequence | polyreactivity (PSR sort gate) |
| --- | --- |
| QVQLVESGGGLVQAGGSLRLSCAASGSTFPYYTMGGYRQAPGKERELVAAISWRGGSTYYADTVKGRFSISRDNAKNTVYLQMNSLKPEDTAVYYCAARYGVFGYDYWGQGTQVTVSS | high polyreactivity |
| QVQLVESGGGLVQAGGSLRLSCAASGSTFQANDMGWYRQAPGKERELVAAISTGGSSTYYADSVKGRFTISRDNAKNTVYLQMNCLKPEDTAVYYCAVDGLGGREGYWGQGTQVTVSS | high polyreactivity |
| QVQLVESGGGLVQAGGSLRLSCAASGSTFQENAMGWYRQAPGKEREFVAAISGSGGSTYYADSVKGRFTISRDNAKNTVYLQMNSLKPEDTAVYYCAARHYFRSRRRYDYWGQGTQVTVSS | low polyreactivity |
| QVQLVESGGGLVQAGGSLRLSCAASGSTFQGNAMGWYRQAPGKERELVAAISKRGGSTYYADSVKGRFTISRDNAKNTVYLQMNSLKPEDTAVYFCNAKLFASRGYYFGGAYQYGYWGQGTQVTVSS | high polyreactivity |
| QVQLVESGGGLVQAGGSLRLSCAASGSTFQGYAMGWYRQAPGKERELVAAISRSGSGTYYADSVKGRFTISRDNAKNTVYLQMNSLKPEDTAVYYCAKDDVRRSTSRHYYYWGHGTQVTVSS | high polyreactivity |
| QVQLVESGGGLVQAGGSLRLSCAASGSTFQGYDMGWYRQAPGKERELVAAINYSGGSTYYADSVKGRFTISRDNAKNTVYLQLNSLKPEDTAVFYCNADGYSQFWYEYYYCGQGTQVTVSS | high polyreactivity |
| QVQLVESGGGLVQAGGSLRLSCAASGSTFQIYAMGWYRQAPGKEWELVAAITSSSSTNYADSVKGRFTISRDNAKNTVYLQMNSLKPEDTAVYYCAADVSWRSNWYDYWGQGTQVTVSS | low polyreactivity |
| QVQLVESGGGLVQAGGSLRLSCAASGSTFQIYAMGWYRQAPGNERELVAAITSSSSTNYADSVKGRFTISRDNAKNTVYLQMNSLKPEDTAVYYCAADVSWRSNWYDYWGQGTQVTVSS | low polyreactivity |
| QVQLVESGGGLVQAGGSLRLSCAASGSTFQLYAMGWYRQAPGKERELVAAISGIGDSTYYADSVKGRFTISRDNAKYTVYLQMNSLKPEDTAVYYCAREFCDGLSGKFDYWGQGTQVNVSS | low polyreactivity |
| QVQLVESGGGLVQAGGSLRLSCAASGSTFQNYAMGWYIQAPGKERELVAAIRGNGGITYYADSVKGRFTISRDNAKNTVYLQMNSLKPEDTAVYYFAVRSAWVYGIRRDYWGQGTQVTVSS | high polyreactivity |
| QVQLVESGGGLVQAGGSLRLSCAASGSTFQNYAMGWYRQAPGKERELVAAINWSGGSTYYADSVKVRFTISRDNAKNTVYLQMNSLKPEDTAVYYCATDDPLAYGSFGPYQPYDYWGQGTQVTVSS | low polyreactivity |
| QVQLVESGGGLVQAGGSLRLSCAASGSTFQPYAMGWYREAPGKERELVATITWRGGRTYYADSVKGRFTISRDNAKYTVYLQMNSLKPEDTAVYYCNVAYRGFRYYYWGQGTQVNVSS | high polyreactivity |
| QVQLVESGGGLVQAGGSLRLSCAASGSTFQPYAMGWYRQAPGKEREFVATISGSAGSTYYADSVKGRFKISRDNAKNTVYLQMNSLKPEDTAVYYCNARPARKSLDYDYWGQGTQVTVSS | low polyreactivity |
| QVQLVESGGGLVQAGGSLRLSCAASGSTFQRYAMGWYRQAPGKERELVAAITIRGTRTYYADSVKGRFTISRDNAKNTVYLQMNSLKPEDTAVYYCAATYYWYGHPSRRYDYWGQGTQVTVSS | high polyreactivity |
| QVQLVESGGGLVQAGGSLRLSCAASGSTFQRYTMGWYSQAPGKERELVAAISQSGGRTYYADSVKGRFTISREHAKKTVYLEMNSLKPEDTAVYSCNAASRTKFDYWGQGTQVTVSS | high polyreactivity |
| QVQLVESGGGLVQAGGSLRLSCAASGSTFQSYAMGWYRQAPGKERELVASITRTGGTTYYADSVKGRFTISRDNAKNTVYLQMNSLKPEDTAVYYCNADLGQPISLDDFDYWGQGTQVTVSS | low polyreactivity |

| Sequence | polyreactivity (PSR sort gate) |
| --- | --- |
| QVQLVESGGGLVQAGGSLRLSCAASGSTFQTYAMGWSRQAPGKERELVAAISFNGGSTYYADSVKGRFTISRDNAKNTVYLQMNSLKPEDTAVYYCAVEYTWATALYDGRHDYWGQGTQVTVSS | high polyreactivity |
| QVQLVESGGGLVQAGGSLRLSCAASGSTFQTYAMGWYRQAPGKERELVAAITSGGSTNYADSVKGRFTISRDNAKNTVYLQMNSLKPEETAVYYCAVRQIYQTSDHRLQYDYWGQGTQVSVSS | low polyreactivity |
| QVQLVESGGGLVQAGGSLRLSCAASGSTFQTYAMGWYRQAPGKERELVASIDYSGGSTYYADSVKGRFTISRDNAKNTVYLQMNSLKPEDTAVYYCAADLSSDSSYSGYDYWGQGTQVTVSS | low polyreactivity |
| QVQLVESGGGLVQAGGSLRLSCAASGSTFQWYTMGWYRQAPGKERELVAAITWSGASTYYADSVKGRFTISRDNAKNTVYLQMNSLKPDYTAVYYCAADWRRGSGFYYWGQGTQVTVSS | high polyreactivity |
| QVQLVESGGGLVQAGGSLRLSCAASGSTFQYNAMGWYRQAPGKERELVAVISGSGSRTYYADSVKGRFTISRDNAKNTVYLQMNSLKPEDTAVYYCAKQRGGEPRSSTYYYWGQGTQVTVSS | high polyreactivity |
| QVQLVESGGGLVQAGGSLRLSCAASGSTFQYYAMGGYIQAPGKQRQLVAAISSGGSTYYADSVKGRFTISRDNAMNTVYLQMNSLKPEDTAVYYCAADGYYSVSRYTSYKYYYWGQGTQVTVSS | high polyreactivity |
| QVQLVESGGGLVQAGGSLRLSCAASGSTFQYYAMGWYRQAPGKERELVAAISSGGSTYYADSVKGRFTISRDIAKNTVYLQMNSLKPEDTAVYYCAAYEYDGDYGYCGQGTQVTVSS | high polyreactivity |
| QVQLVESGGGLVQAGGSLRLSCAASGSTFQYYARGWYRQAPGKETELVAAISDRDGGTFYADSVKGRFTISRDNAKNTVYLQMNSLKPEDTAVYYCATDAVGFRLDDNGYWGQGTQVTVSS | low polyreactivity |
| QVQLVESGGGLVQAGGSLRLSCAASGSTFQYYDMGWYRQAPGKERELVASITGSGDSTYYADSVKGRFTISRDNAKNTVYLQMNSLKPEDSAVYYCAAQNTWSGDYDYWGQGTQVTVSS | low polyreactivity |
| QVQLVESGGGLVQAGGSLRLSCAASGSTFRANAMGWYRQAPGKERELVAAISSGGSTYYADSVKGRFTISRDNAKNTVYLQMNSLKPEDTAVYYCAAVTVKYDESGIYYSDDDYWGQGTQVTVSS | high polyreactivity |
| QVQLVESGGGLVQAGGSLRLSCAASGSTFRANLMGRYRQAPGKERELVAAITSAGGSTYYADSVKGRFTISRDNAKNTVYIQMNSLKPEDTAVYYCNKQERPGPGRARYNYWGQGTQVTVSS | high polyreactivity |
| QVQLVESGGGLVQAGGSLRLSCAASGSTFRAYAMGWYRQAPGKEREFVADISWSGGSTYYADSVKGRFTISRDNAKNTVYLQMNSLKPEDSAVYYCAAEAAPLIIVTYDYWGQGTQVTVSS | low polyreactivity |
| QVQLVESGGGLVQAGGSLRLSCAASGSTFRDNAMGWYRQAPGTERELVAAISRRGGNTYYADSVKGRFTISRDNAKNTVYLQMNSLKPEDTAVYYCASEVKTSYSYTHDGYWGQGTKVTVSS | high polyreactivity |
| QVQLVESGGGLVQAGGSLRLSCAASGSTFRDNVMGWYRQAPGKEWEFVAAISSSVGSTYYADSVKGRFTISRDNAKNTVYLQMNSLKPEDTAVYYCAARLWPSYLSYGKTGDYWGQGTQVTVSS | high polyreactivity |
| QVQLVESGGGLVQAGGSLRLSCAASGSTFRDYAMGWYRQAPGKERELVAAITYSDGGTYYADSVKGRFTISRDNAKNTVYLQMNSLKPEDTAVYYCAADYPIYSFYYSAYFIFGYWGQGSQVTVSS | low polyreactivity |
